# Patent US20120252691, “MODIFIED NUCLEOTIDES METHODS AND KITS” (Pierce Biotechnology, Inc., published 2012)
# Molecular target: PABPC1-GST (Poly(A) binding protein) (UniProt P11940 P11940:1-636)
# Assay: pulldown; 10 mM Tris pH 7.5, 2.5 mM MgCl2, 10 mM KCl, 15% glycerol, tRNA, 4 C; also with UV crosslinking (FIG. 17)
# Details: tags: GST; label: 3'-biotin-PEG12-alkane-cytidine
# Procedure: Poly(A)₂₅ RNA was labeled using biotin-PEG₁₂-alkane-3′5′-bisphosphate cytidine and T4 RNA ligase. The Poly(A) Binding Protein (PABP), which binds the poly(A) tracts of mRNA, was cloned into a vector containing a GST-tag and expressed in a human cell-free in vitro translation (IVT) system. The lysate was diluted 1:10 for use in the binding reaction. The labeled RNA (50 pmol) was incubated with streptavidin magnetic beads (0.5 mg) for thirty minutes in 20 mM Tris-HCl (7.5), 100 mM NaCl, 1 mM EDTA. After washing, the beads were then incubated with 2-3 μl of diluted IVT lysate cell lysate in Binding Buffer (10 mM Tris-HCl, pH 7.5, 2.5 mM MgCl₂, 10 mM KCl, 15% glycerol, 0.5% Tween-20, and 10 μg tRNA) for one hour at 4° C. An unrelated RNA was used as a negative control, and beads were incubated with lysate alone to assess background. […] After separation by electrophoresis, PABP was detected using PABP antibody.
# Synthetic RNA (50 pmol/reaction) was end-labeled using a twenty-fold excess of Biotin-PEG₁₂-Alkane-3′5′-Bisphosphate Cytidine with T4 RNA ligase. […] Normalized samples were separated by electrophoresis, transferred, and detected using PABPC1, GST (SNRPA1) antibodies (1:1000 dilution in TBST-0.5% BSA). […]
# Sequence of PABPC1-GST (Poly(A) binding protein) (P11940 whole entry, one chain of several): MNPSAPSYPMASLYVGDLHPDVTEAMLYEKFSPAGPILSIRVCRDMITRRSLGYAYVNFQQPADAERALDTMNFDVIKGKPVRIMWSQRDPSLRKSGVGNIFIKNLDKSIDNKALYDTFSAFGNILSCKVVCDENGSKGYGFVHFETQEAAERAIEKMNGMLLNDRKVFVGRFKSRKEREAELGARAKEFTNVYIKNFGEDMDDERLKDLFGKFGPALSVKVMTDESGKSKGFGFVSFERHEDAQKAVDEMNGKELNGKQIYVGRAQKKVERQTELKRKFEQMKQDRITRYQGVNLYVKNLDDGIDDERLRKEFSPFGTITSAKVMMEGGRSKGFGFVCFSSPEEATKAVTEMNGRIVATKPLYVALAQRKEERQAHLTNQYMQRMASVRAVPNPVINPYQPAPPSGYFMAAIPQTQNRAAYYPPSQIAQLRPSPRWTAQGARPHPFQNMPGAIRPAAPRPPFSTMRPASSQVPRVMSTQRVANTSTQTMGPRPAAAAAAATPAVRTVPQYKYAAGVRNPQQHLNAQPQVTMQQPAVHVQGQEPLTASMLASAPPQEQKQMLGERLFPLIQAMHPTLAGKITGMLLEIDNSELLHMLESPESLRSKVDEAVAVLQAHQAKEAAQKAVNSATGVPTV
binder,measurement,value
"AAAAAAAAAAAAAAAAAAAAAAAAA (ssRNA) [Poly(A)25 RNA, biotin-PEG12]",binding result,binds
